Results: US20090203602A1

Assays:
[1] = biological target: BRAF V599E V-raf murine sarcoma viral oncogene homolog B1 V599E mutation, P15056; assay: cell-based or functional assay
[2] = biological target: PRKCB1 (PKC beta I) Protein kinase C, beta 1, P05771; assay: cell-based or functional assay

SGRPPMIVWFNRPFLIAVSHTHGQTILFMAKVINPVGA [D3 peptide]
% Inhibition mean [1]: 99.8%
% Inhibition mean [2]: 88%
